Measured values from US5493008A, “Two non-contiguous regions contribute to nidogen binding to a single EGF-like motif of the laminin γ1 chain” (The University Of Virginia Patent Foundation, priority 1994, dated 1996).
Read-outs that look alike come from different tables or passages of the source. Where a SMILES comes first, the peptide text is derived from it. Where no end group is shown, it is not given here. The star is where a group is joined. Nle‑OMe = norleucine methyl ester coupled to carboxyl groups via carbodiimide, CCCC[C@H](N*)C(=O)OC

Tests used:
[1] = target: T1, nidogen (Mus musculus, UniProt P10493); experiment: Radioligand competition assay: inhibition of 125I-laminin fragment P1 binding to nidogen; settings: for higher inhibitory activity compared with loop a,b: relative to synthetic loop a,b peptide; for inhibitory activity in words: laminin-nidogen binding competition
T1 sequence (P10493 29-1245): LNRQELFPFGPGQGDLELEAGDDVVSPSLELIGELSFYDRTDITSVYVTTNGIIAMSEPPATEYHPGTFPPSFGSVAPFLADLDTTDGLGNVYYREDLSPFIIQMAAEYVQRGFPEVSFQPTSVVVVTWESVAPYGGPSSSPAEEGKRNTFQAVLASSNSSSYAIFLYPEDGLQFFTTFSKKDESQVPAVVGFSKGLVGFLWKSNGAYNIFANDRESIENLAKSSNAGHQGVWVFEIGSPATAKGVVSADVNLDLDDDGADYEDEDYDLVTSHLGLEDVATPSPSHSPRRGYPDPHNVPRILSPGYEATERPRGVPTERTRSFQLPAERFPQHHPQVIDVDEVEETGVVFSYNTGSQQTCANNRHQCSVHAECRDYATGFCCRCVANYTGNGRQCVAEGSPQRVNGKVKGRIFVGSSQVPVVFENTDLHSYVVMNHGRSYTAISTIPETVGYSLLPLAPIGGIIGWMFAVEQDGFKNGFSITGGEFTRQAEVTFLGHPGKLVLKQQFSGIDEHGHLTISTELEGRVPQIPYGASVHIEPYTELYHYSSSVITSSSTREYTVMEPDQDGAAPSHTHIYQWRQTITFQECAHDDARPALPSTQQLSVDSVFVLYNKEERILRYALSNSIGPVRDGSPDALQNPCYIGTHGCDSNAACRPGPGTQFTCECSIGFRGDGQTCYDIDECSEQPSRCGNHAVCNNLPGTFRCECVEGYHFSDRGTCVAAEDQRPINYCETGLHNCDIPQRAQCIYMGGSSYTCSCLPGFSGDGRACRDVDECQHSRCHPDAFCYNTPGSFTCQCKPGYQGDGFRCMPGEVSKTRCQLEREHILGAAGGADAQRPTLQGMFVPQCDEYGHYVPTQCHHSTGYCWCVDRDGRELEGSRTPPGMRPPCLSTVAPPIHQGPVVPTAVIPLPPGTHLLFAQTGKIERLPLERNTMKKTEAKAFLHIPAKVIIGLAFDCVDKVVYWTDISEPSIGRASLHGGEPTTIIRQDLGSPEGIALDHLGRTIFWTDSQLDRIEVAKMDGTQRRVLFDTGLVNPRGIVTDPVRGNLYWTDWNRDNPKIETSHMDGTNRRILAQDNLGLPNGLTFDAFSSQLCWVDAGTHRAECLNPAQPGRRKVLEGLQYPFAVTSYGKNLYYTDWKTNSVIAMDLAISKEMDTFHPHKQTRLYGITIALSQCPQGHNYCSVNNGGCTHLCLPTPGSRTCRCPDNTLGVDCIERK
Method: A radioligand competition assay was used for measurement of relative binding affinities (Mann K. et al. (1988), Eur. J. Biochem., 178, 71-80; Fox, J. W. et al. (1991), EMBO J., 10, 3137-3146). A fixed concentration of recombinant nidogen (0.2 nM) was incubated overnight at 4° C. with inhibitors at varying concentrations, followed by the addition of ^125 I-labeled laminin fragment P1 (0.01 nM; 10,000-20,000 c.p.m.) for the same incubation period. Bound and non-bound fragment P1 was then separated by antibodies against nidogen. Competitor concentrations causing 50% inhibition (IC50) were determined from dose-response profiles. […] IC50 values compared from different assays were normalized to a single fragment P1 value.

[2] = target: T2, recombinant nidogen (Mus musculus (Mouse), UniProt P10493); experiment: radioligand competition assay: inhibitor varied, 0.2 nM recombinant nidogen, 125I-laminin fragment P1
T2 sequence: T1 sequence (P10493 29-1245)
Method: A radioligand competition assay was used for measurement of relative binding affinities (Mann K. et al. (1988), Eur. J. Biochem., 178, 71–80; Fox, J. W. et al. (1991), EMBO J., 10, 3137–3146). A fixed concentration of recombinant nidogen (0.2 nM) was incubated overnight at 4° C. with inhibitors at varying concentrations, followed by the addition of ^125I-labeled laminin fragment P1 (0.01 nM; 10,000–20,000 c.p.m.) for the same incubation period. Bound and non-bound fragment P1 was then separated by antibodies against nidogen.

[3] = Table II, synthetic loops of EGF-like repeat 4 and smaller synthetic and proteolytic fragments, read-out: IC50 (inhibitory capacity)
[4] = Table III, amino acid replacements in heptapeptide NIDPNAV, read-out: IC50 (inhibitory capability for laminin-nidogen binding)
[5] = Table IV, recombinant mutants and chimeric structures of γ1III4, read-out: IC50 (inhibitory activity for laminin-nidogen binding)

CC[C@H](C)[C@@H]1NC(=O)[C@@H](NC(=O)[C@H](CCCCN)NC(=O)[C@H](CC(C)C)NC(=O)[C@@H]2CSSC[C@H](NC(=O)[C@@H](N)CCC(N)=O)C(=O)N[C@@H](CC(N)=O)C(=O)N[C@@H](CC(=O)O)C(=O)N[C@@H](CC(N)=O)C(=O)N[C@@H]([C@@H](C)CC)C(=O)N[C@@H](CC(=O)O)C(=O)N3CCC[C@H]3C(=O)N[C@@H](CC(N)=O)C(=O)N[C@@H](C)C(=O)N[C@@H](C(C)C)C(=O)NCC(=O)N2)CSSC[C@@H](C(=O)N[C@@H](CC(=O)O)C(=O)O)NC(=O)[C@H](Cc2ccc(O)cc2)NC(=O)[C@H](Cc2ccccc2)NC(=O)CNC(=O)[C@H](C)NC(=O)[C@H]([C@@H](C)O)NC(=O)[C@H](CC(N)=O)NC(=O)[C@H](Cc2ccc(O)cc2)NC1=O [loop a,c, oxidized, QCNDNIDPNAVGCLKC1YNTAGFYCD] (HELM PEPTIDE1{Q.C.N.D.N.I.D.P.N.A.V.G.C.L.K.C.I.Y.N.T.A.G.F.Y.C.D}$PEPTIDE1,PEPTIDE1,2:R3-13:R3|PEPTIDE1,PEPTIDE1,16:R3-25:R3$$$V2.0; N-terminus and C-terminus assumed)
IC50 higher / less active than fragment P1 ([1]; relative to laminin fragment P1): 300 fold
higher inhibitory activity compared with loop a,b [1]: 20 fold

CC[C@H](C)[C@@H]1NC(=O)[C@@H](NC(=O)[C@@H](N)CCCCN)CSSC[C@@H](C(=O)N[C@@H](CC(=O)O)C(=O)O)NC(=O)[C@H](Cc2ccc(O)cc2)NC(=O)[C@H](Cc2ccccc2)NC(=O)CNC(=O)[C@H](C)NC(=O)[C@H]([C@@H](C)O)NC(=O)[C@H](CC(N)=O)NC(=O)[C@H](Cc2ccc(O)cc2)NC1=O [loop c, oxidized] (HELM PEPTIDE1{K.C.I.Y.N.T.A.G.F.Y.C.D}$PEPTIDE1,PEPTIDE1,2:R3-11:R3$$$V2.0)
IC50 [1, 3]: > 200000 nM
IC50 ([1]; read-out: IC50): 90000 to 200000 nM

CC(C)C[C@@H]1NC(=O)[C@@H]2CCCN2C(=O)[C@H](CC(N)=O)NC(=O)CNC(=O)[C@H](Cc2ccccc2)NC(=O)[C@H](Cc2ccccc2)NC(=O)CNC(=O)[C@H](CCC(=O)O)NC(=O)[C@H](CCCCN)NC(=O)[C@@H](NC(=O)[C@@H](N)CCCNC(=N)N)CSSC[C@@H](C(=O)N[C@@H](CCCCN)C(=O)O)NC(=O)[C@H](CCCCN)NC(=O)[C@H](CC(=O)O)NC(=O)[C@H](C)NC(=O)[C@@H]2CCCN2C(=O)[C@H](CC(N)=O)NC(=O)[C@@H]2CCCN2C(=O)[C@H](C)NC1=O [loop d, oxidized] (HELM PEPTIDE1{R.C.K.E.G.F.F.G.N.P.L.A.P.N.P.A.D.K.C.K}$PEPTIDE1,PEPTIDE1,2:R3-19:R3$$$V2.0; N-terminus and C-terminus assumed)
IC50 [1, 3]: > 90000 nM
inhibitory activity in words [1]: No inhibitory activity
IC50 ([1]; read-out: IC50): 90000 to 200000 nM

AVGNCNR [Th1, AVGNCNR]
IC50 [1, 3]: > 30000 nM
inhibitory activity in words [1]: inactive

IDPNAVGN [IOPNAVGN]
IC50 [1, 3]: 1600 nM

LTGECL [T2, LTGECL]
IC50 [1, 3]: 12000 nM

NIDPNA [NIDPNA]
IC50 [1, 3]: > 460000 nM

NIDPNAV [NIDPNAV]
IC50 [1, 3]: 800 nM
IC50 ([1]; read-out: IC50): 800 nM

NIDPNAVGN [NIDPNAVGN]
IC50 [1, 3]: 600 nM
IC50 ([1]; read-out: IC50): 600 nM

NVDPNAS [NVDPNAS]
IC50 [1, 4]: > 160000 nM

NVDPSAS [NVDPSAS]
IC50 [1, 4]: > 290000 nM

NVDPSAV [NVDPSAV]
IC50 [1, 4]: > 180000 nM

γ1III3ab4cd: recombinant chimera: loop a,b of repeat 3 with loop c,d of repeat 4 (PCPCPGGSSCAIVPKTKEVVCTHCIYNTAGFYCDRCKEGFFGNPLAPNPADKCK)
IC50 [1, 5]: 1100 nM

γ1III4: recombinant nidogen binding EGF-like repeat 4 of laminin γ1 chain domain III, 56 residues [reference compound]
IC50 [1, 5]: 0.05 nM
IC50 ([1]; read-out: IC50): 0.05 nM

γ1III4D800,N: recombinant γ1III4 with Asp800 mutated to Asn
IC50 [1, 5]: 1000 nM

γ1III4N802-S: recombinant γ1III4 with Asn802 mutated to Ser
reduction in activity of mutant ([1]; relative to wild-type γ1III4): ~ 100,000 fold

γ1III4Y819-A: recombinant γ1III4 with Tyr819 mutated to Ala
IC50 [1, 5]: 3 nM

γ1III4Y819/825-A, reduced: γ1III4Y819/825-A reduced and alkylated under denaturing conditions
IC50 [1, 5]: 430 nM

γ1III4Y819/825-A: recombinant γ1III4 with Tyr819 and Tyr825 mutated to Ala
IC50 [1, 5]: 1.5 nM
decrease in activity after reduction and alkylation ([1]; reduced and alkylated under denaturing conditions versus disulfide-bonded form): ~ 300 fold

γ1III4Y825-A: recombinant γ1III4 with Tyr825 mutated to Ala
IC50 [1, 5]: 0.06 nM
inhibitory activity in words [1]: without significant effect on inhibitory activity

γ1III4ab3cd: recombinant chimera: loop a,b of repeat 4 with loop c,d of repeat 3 (PCQCNDNIDPNAVGNCNRLTGECLKCPTGTAGKRCELCDDGYFGDPLGSNGPVRLCR)
IC50 [1, 5]: 80 nM
further decrease in activity ([1]; loop c replaced by loop c of a non-binding repeat, relative to the Tyr819 modification): 30 fold
IC50 ([1]; read-out: IC50): 80 nM
higher inhibitory activity compared with loop a,b [1]: 3 fold

B1: synthetic loop a,b, amidated (792-815) (peptide)
peptide: PCQCND(Nle‑OMe)NTD(Nle‑OMe)PNAVGNCNRLTGE(Nle‑OMe)CL
modifications: not fully specified; cysteine pairing not given here; also: carboxyl groups of Asp and Glu blocked with norleucine methyl ester (amidation), sites not placed
IC50 [2]: > 5400 nM

DNIDPNAVGNCNRLTGECL [E1, 797-815]
IC50 [2]: 530 nM

NIDPNAVGN [NIDPNAVGN (S, 798-806)]
IC50 [2]: 600 nM

B2: recombinant fragment γ1III3-5 (other)
chain: PCPCPGGSSCAIVPKTKEVVCTHCPTGTAGKRCELCDDGYFGDPLGSNGPVRLCRPCQCNDNIDPNAVGNCNRLTGECLKCIYNTAGFYCDRCKEGFFGNPLAPNPADKCKACACNPYGTVQQQSSCNPVTGQCQCLPHVSGRDCGTCDPGYYNLQSGQGCE
IC50 [2]: 0.04 nM

B3: γ1III3-5, Asp/Glu amidation (other)
chain: B2 chain
modifications: carboxyl groups (Asp, Glu) activated with 1-ethyl-3-dimethylaminopropylcarbodiimide and blocked by norleucine methylester
IC50 [2]: 2.1 nM

AVGNCNR [Th1, 803-809]
binding result [2]: no binding (tested: >30,000 nM)

PCQCN [E3, 792-796]
binding result [2]: no binding (tested: >96,000 nM)

NIDPNA [NIDPNA (S, 798-803)]
binding result [2]: no binding (tested: >460,000 nM)

B4: γ1III3-5Δ4: recombinant deletion mutant joining repeats 3 and 5, lacking EGF-like repeat 4 (protein)
chain: PCPCPGGSSCAIVPKTKEVVCTHCPTGTAGKRCELCDDGYFGDPLGSNGPVRLCRACACNPYGTVQQQSSCNPVTGQCQCLPHVSGRDCGTCDPGYYNLQSGQGCE
IC50 [1, 5]: > 3200 nM
inhibitory activity in words [1]: without measurable activity
